The record followed here is patent US20190376079A1 (WHITEHEAD INSTITUTE FOR BIOMEDICAL RESEARCH, published 2019).

The target in this assay is SBP-tagged EF2 purified from WDR85 deficient (WDR85GT) cells (human, UniProt P13639 1-858). The experiment in a line: co-purification with SBP-tagged EF2 on streptavidin sepharose from WDR85GT cells; silver stain, mass spectrometry, immunoblot. A general note: In western blotting, separated proteins are transferred to a membrane and probed.

Excerpt: Proteins were separated using SDS-PAGE gel electrophoreses and visualized using silverstaining. For mass spectrometry, the EF2 band was purified from gel and digested using trypsin.

B1: DPH5 (enzyme)
chain: MLYLIGLGLGDAKDITVKGLEVVRRCSRVYLEAYTSVLTVGKEALEEFYGRKLVVADREEVEQEADNILKDADISDVAFLVVGDPFGATTHSDLVLRATKLGIPYRVIHNASIMNAVGCCGLQLYKFGETVSIVFWTDTWRPESFFDKVKKNRQNGMHTLCLLDIKVKEQSLENLIKGRKIYEPPRYMSVNQAAQQLLEIVQNQRIRGEEPAVTEETLCVGLARVGADDQKIAAGTLRQMCTVDLGEPLHSLIITGGSIHPMEMEMLSLFSIPENSSESQSINGL
notes: also called methyltransferase DPH5
On to B1, for which the binding result was “binds”.
